# Test results taken from ChEMBL document CHEMBL1255339, “Biochemical characterization of SHV-55, an extended-spectrum class A beta-lactamase from Klebsiella pneumoniae” (Antimicrob Agents Chemother, 2008).
# Numbering of substitutions follows the chain as printed.
# B1: Beta-lactamase SHV-1 (Klebsiella pneumoniae), P0AD64 (protein)
# chain: MRYIRLCIISLLATLPLAVHASPQPLEQIKLSESQLSGRVGMIEMDLASGRTLTAWRADERFPMMSTFKVVLCGAVLARVDAGDEQLERKIHYRQQDLVDYSPVSEKHLADGMTVGELCAAAITMSDNSAANLLLATVGGPAGLTAFLRQIGDNVTRLDRWETELNEALPGDARDTTTPASMAATLRKLLTSQRLSARSQRQLLQWMVDDRVAGPLIRSVLPAGWFIADKTGAGERGARGIVALLGPNNKAERIVVIYLRDTPASMAERNQQIAGIGAALIEHWQR
# B2: Beta-lactamase SHV-55 (Klebsiella pneumoniae), Q4TVR4 (protein)
# chain: B1 chain with Y3F, G234S, E235K
# Tests used:
# [1] = substrate: CC1(C)S[C@@H]2[C@H](NC(=O)Cc3ccccc3)C(=O)N2[C@H]1C(=O)O; test: (§1) Activity of Klebsiella pneumoniae Beta-Lactamase SHV-1
# [2] = substrate: CC1(C)S[C@@H]2[C@H](NC(=O)[C@H](C(=O)O)c3ccsc3)C(=O)N2[C@H]1C(=O)O; test: as §1
# [3] = substrate: C[C@H]1[C@H](NC(=O)/C(=N\OC(C)(C)C(=O)O)c2csc(N)n2)C(=O)N1S(=O)(=O)O; test: as §1
# [4] = substrate: CO/N=C(\C(=O)N[C@@H]1C(=O)N2C(C(=O)[O-])=C(C[N+]3(C)CCCC3)CS[C@H]12)c1csc(N)n1; test: as §1
# [5] = substrate: CO/N=C(\C(=O)N[C@@H]1C(=O)N2C(C(=O)O)=C(COC(N)=O)CS[C@H]12)c1ccco1; test: as §1
# [6] = substrate: CCN1CCN(C(=O)N[C@@H](C(=O)N[C@@H]2C(=O)N3[C@@H]2SC(C)(C)[C@@H]3C(=O)O)c2ccccc2)C(=O)C1=O; test: (§2) Activity of Klebsiella pneumoniae Beta-Lactamase SHV-55
# [7] = substrate: CC1(C)S[C@@H]2[C@H](NC(=O)Cc3ccccc3)C(=O)N2[C@H]1C(=O)O; test: as §2
# [8] = substrate: CC1(C)S[C@@H]2[C@H](NC(=O)[C@H](C(=O)O)c3ccsc3)C(=O)N2[C@H]1C(=O)O; test: as §2
# [9] = substrate: C[C@H]1[C@H](NC(=O)/C(=N\OC(C)(C)C(=O)O)c2csc(N)n2)C(=O)N1S(=O)(=O)O; test: as §2
# [10] = substrate: CO/N=C(\C(=O)N[C@@H]1C(=O)N2C(C(=O)[O-])=C(C[N+]3(C)CCCC3)CS[C@H]12)c1csc(N)n1; test: as §2
# [11] = substrate: CO/N=C(\C(=O)N[C@@H]1C(=O)N2C(C(=O)O)=C(COC(N)=O)CS[C@H]12)c1ccco1; test: as §2
# [12] = substrate: CCN1CCN(C(=O)N[C@@H](C(=O)N[C@@H]2C(=O)N3[C@@H]2SC(C)(C)[C@@H]3C(=O)O)c2ccccc2)C(=O)C1=O; test: (§3) Ratio of Kcat to Km for Klebsiella pneumoniae Beta-Lactamase SHV-55
# [13] = substrate: CC1(C)S[C@@H]2[C@H](NC(=O)Cc3ccccc3)C(=O)N2[C@H]1C(=O)O; test: as §3
# [14] = substrate: CC1(C)S[C@@H]2[C@H](NC(=O)[C@H](C(=O)O)c3ccsc3)C(=O)N2[C@H]1C(=O)O; test: as §3
# [15] = substrate: CO/N=C(\C(=O)N[C@@H]1C(=O)N2C(C(=O)[O-])=C(C[N+]3(C)CCCC3)CS[C@H]12)c1csc(N)n1; test: as §3
# [16] = substrate: CO/N=C(\C(=O)N[C@@H]1C(=O)N2C(C(=O)O)=C(COC(N)=O)CS[C@H]12)c1ccco1; test: as §3
protein,measurement,setting,value
B1,Km,[1],23 µM
same,kcat,[2],220 s⁻¹
same,kcat,[3],< 0.1 s⁻¹
same,Km,[4],149 µM
same,kcat,[4],< 0.1 s⁻¹
same,Km,[5],80 µM
same,kcat,[5],< 0.1 s⁻¹
B2,Km,[6],8 µM
same,kcat,[6],27 s⁻¹
same,Km,[7],5 µM
same,Km,[8],6 µM
same,kcat,[8],8 s⁻¹
same,Km,[9],5 µM
same,kcat,[9],< 0.1 s⁻¹
same,Km,[10],149 µM
same,kcat,[10],30 s⁻¹
same,kcat,[11],7 s⁻¹
same,kcat/Km,[12],3.7 µM⁻¹ s⁻¹
same,kcat/Km,[13],5.3 µM⁻¹ s⁻¹
same,kcat/Km,[14],1.5 µM⁻¹ s⁻¹
same,kcat/Km,[15],0.2 µM⁻¹ s⁻¹
same,kcat/Km,[16],0.3 µM⁻¹ s⁻¹
